Laboratory results: patent US20030219446A1
Values belong to the substance of their own block, whether it stands above or below them.

Legend:
[1] = target: CD28 receptor (human) (UniProt P10747); assay: cell-based or functional assay
[2] = target: CD28Ig fusion protein (human) (UniProt P10747); assay: competition of ^125I-B7Ig binding to immobilized CD28Ig
[3] = target: CD28 receptor (human) (UniProt P10747); assay: flow cytometry, FITC-conjugated mAb 9.3 on CD28^+ CHO cells
[4] = target: CD28 receptor (human) (UniProt P10747); assay: flow cytometry, FITC-conjugated mAb 9.3 on phytohemagglutinin-stimulated T cells
[5] = target: CD28Ig fusion protein (human) (UniProt P10747); assay: competition of ^125I-B7Ig binding to immobilized CD28Ig by the unlabeled competitor
[6] = target: CD28Ig fusion protein (human) (UniProt P10747); assay: plate binding assay, ^125I-B7Ig (24 nM) on immobilized CD28Ig
[7] = target: CD28Ig fusion protein (human) (UniProt P10747); assay: competition of ^125I-B7Ig binding to immobilized CD28Ig by unlabeled B7Ig
[8] = target: B7 antigen (human) (UniProt P33681); assay: cell-based or functional assay
[9] = target: B7 antigen (human) (UniProt P33681); assay: flow cytometry, 5E1 cells; -cold minus +cold
[10] = target: B7 antigen (human) (UniProt P33681); assay: flow cytometry, T51 cells; -cold minus +cold
[11] = target: B7 antigen (human) (UniProt P33681); assay: flow cytometry, Raji cells; -cold minus +cold
[12] = target: B7 antigen (human) (UniProt P33681); assay: flow cytometry, Daudi cells; -cold minus +cold
[13] = target: B7 antigen (human) (UniProt P33681); assay: flow cytometry, Jijoye cells; -cold minus +cold
[14] = target: B7 antigen (human) (UniProt P33681); assay: flow cytometry, 5E1 cells preincubated with unlabeled BB-1
[15] = target: B7 antigen (human) (UniProt P33681); assay: flow cytometry, T51 cells preincubated with unlabeled BB-1
[16] = target: B7 antigen (human) (UniProt P33681); assay: flow cytometry, Raji cells preincubated with unlabeled BB-1
[17] = target: B7 antigen (human) (UniProt P33681); assay: flow cytometry, Daudi cells preincubated with unlabeled BB-1
[18] = target: B7 antigen (human) (UniProt P33681); assay: flow cytometry, Jijoye cells preincubated with unlabeled BB-1
[19] = target: B7 antigen (human) (UniProt P33681); assay: flow cytometry, direct staining of 5E1 cells (positive for CD28 adhesion)
[20] = target: B7 antigen (human) (UniProt P33681); assay: flow cytometry, direct staining of T51 cells (positive for CD28 adhesion)
[21] = target: B7 antigen (human) (UniProt P33681); assay: flow cytometry, direct staining of Raji cells (positive for CD28 adhesion)
[22] = target: B7 antigen (human) (UniProt P33681); assay: flow cytometry, direct staining of Daudi cells (positive for CD28 adhesion)
[23] = target: B7 antigen (human) (UniProt P33681); assay: flow cytometry, direct staining of Jijoye cells (positive for CD28 adhesion)
[24] = target: B7 antigen (human) (UniProt P33681); assay: flow cytometry, Namalwa cells (negative for CD28 adhesion); -cold minus +cold
[25] = target: B7Ig fusion protein (human) (UniProt P33681); assay: competition of ^125I-B7Ig binding to immobilized CD28Ig by the unlabeled competitor
[26] = target: B7 antigen (human) (UniProt P33681); assay: flow cytometry, 1A2 cells preincubated with unlabeled BB-1 (negative for CD28 adhesion)
[27] = target: B7 antigen (human) (UniProt P33681); assay: flow cytometry, CEM cells preincubated with unlabeled BB-1 (negative for CD28 adhesion)
[28] = target: B7 antigen (human) (UniProt P33681); assay: flow cytometry, HL60 cells preincubated with unlabeled BB-1 (negative for CD28 adhesion)
[29] = target: B7 antigen (human) (UniProt P33681); assay: flow cytometry, HSB2 cells preincubated with unlabeled BB-1 (negative for CD28 adhesion)
[30] = target: B7 antigen (human) (UniProt P33681); assay: flow cytometry, THP-1 cells preincubated with unlabeled BB-1 (negative for CD28 adhesion)
[31] = target: B7 antigen (human) (UniProt P33681); assay: flow cytometry, direct staining of 1A2 cells (negative for CD28 adhesion; presence of B7 not shown)
[32] = target: B7 antigen (human) (UniProt P33681); assay: flow cytometry, direct staining of HL60 cells (negative for CD28 adhesion; presence of B7 not shown)
[33] = target: B7 antigen (human) (UniProt P33681); assay: flow cytometry, direct staining of HSB2 cells (negative for CD28 adhesion; presence of B7 not shown)
[34] = target: B7 antigen (human) (UniProt P33681); assay: flow cytometry, direct staining of THP-1 cells (negative for CD28 adhesion; presence of B7 not shown)
[35] = target: B7 antigen (human) (UniProt P33681); assay: flow cytometry, direct staining of Namalwa cells (negative for CD28 adhesion; presence of B7 not shown)

[^3H]-T incorporation of PBL, mAb 9.3 (immob.), +Anti-CD3, Exp. 1 [1]: 137000 cpm | [^3H]-T incorporation of PBL, mAb 9.3 (immob.), -Anti-CD3, Exp. 1 [1]: 100 cpm | [^3H]-T incorporation of PBL, mAb 9.3 (soln.), +Anti-CD3, Exp. 1 [1]: 156000 cpm | [^3H]-T incorporation of PBL, mAb 9.3 (soln.), +Anti-CD3, Exp. 2 [1]: 75800 cpm | [^3H]-T incorporation of PBL, mAb 9.3 (soln.), -Anti-CD3, Exp. 1 [1]: 300 cpm | [^3H]-T incorporation of PBL, mAb 9.3 (soln.), -Anti-CD3, Exp. 2 [1]: 400 cpm | adhesion of B7 transfected COS cells to CD28^+ CHO cells without EDTA, blocking by mAb 9.3 [1]: 40% | adhesion of T51 cells to CD28^+ CHO cells, reduction by mAb 9.3 with EDTA [1]: 93% | adhesion of T51 cells to CD28^+ CHO cells, reduction by mAb 9.3 without EDTA [1]: 62% | half-maximal inhibition of CD28-mediated adhesion of PM lymphoblastoid cells to CD28^+ CHO cells [1]: 10 nM | fold more effective as a competitor than B7Ig [2]: 65 fold | mean channel (linear fluorescence units) (linear fluorescence units) [3]: 116 | mean channel (linear fluorescence units) (linear fluorescence units) [4]: 11.3 | IC50 [5]: 4.3 nM
Substance: Monoclonal antibody (mAb) 9.3 (anti-CD28)

[^3H]-T incorporation of PHA blasts, stimulation B7^+ CHO, mAb 9.3 Fab [1]: 132000 cpm
Substance: mAb 9.3 (Fab fragments)

[^3H]-T incorporation of PBL, B7Ig (immob.), +Anti-CD3, Exp. 1 [1]: 174000 cpm | [^3H]-T incorporation of PBL, B7Ig (immob.), -Anti-CD3, Exp. 1 [1]: 100 cpm | radioactivity bound without competitor [6]: 7800 cpm | IC50 [7]: 280 nM
Substance: B7Ig fusion protein (from UniProt P33681 35-215; P01857 99-330) (Fc fusion)

[^3H]-T incorporation of PHA blasts, stimulation B7^+ CHO, mAb BB-1 [8]: 98300 cpm | adhesion of Jijoye cells to CD28^+ CHO cells, blocking by mAb [8]: 60% | SPECIFIC BINDING (mean fluorescence) [9]: 10.6 linear units | SPECIFIC BINDING (mean fluorescence) [10]: 13.4 linear units | SPECIFIC BINDING (mean fluorescence) [11]: 4.3 linear units | SPECIFIC BINDING (mean fluorescence) [12]: 3.6 linear units | SPECIFIC BINDING (mean fluorescence) [13]: 15 linear units | mean fluorescence, FITC-BB-1 +COLD [14]: 2.4 linear units | mean fluorescence, FITC-BB-1 +COLD [15]: 3 linear units | mean fluorescence, FITC-BB-1 +COLD [16]: 2.8 linear units | mean fluorescence, FITC-BB-1 +COLD [17]: 2.8 linear units | mean fluorescence, FITC-BB-1 +COLD [18]: 2.8 linear units | mean fluorescence, FITC-BB-1 -COLD [19]: 13 linear units | mean fluorescence, FITC-BB-1 -COLD [20]: 16.4 linear units | mean fluorescence, FITC-BB-1 -COLD [21]: 7.1 linear units | mean fluorescence, FITC-BB-1 -COLD [22]: 6.4 linear units | mean fluorescence, FITC-BB-1 -COLD [23]: 17.8 linear units | SPECIFIC BINDING (mean fluorescence) [24]: 1.6 linear units | IC50 [25]: 140 nM | mean fluorescence, FITC-BB-1 +COLD [26]: 4.3 linear units | mean fluorescence, FITC-BB-1 +COLD [27]: 1.9 linear units | mean fluorescence, FITC-BB-1 +COLD [28]: 3.1 linear units | mean fluorescence, FITC-BB-1 +COLD [29]: 2.3 linear units | mean fluorescence, FITC-BB-1 +COLD [30]: 3 linear units | mean fluorescence, FITC-BB-1 -COLD [31]: 4.5 linear units | mean fluorescence, FITC-BB-1 -COLD [32]: 3.1 linear units | mean fluorescence, FITC-BB-1 -COLD [33]: 2.3 linear units | mean fluorescence, FITC-BB-1 -COLD [34]: 3.1 linear units | mean fluorescence, FITC-BB-1 -COLD [35]: 3.8 linear units
Substance: mAb BB-1 (anti-B7) (antibody)
